{
  "source": "patent US20020077295A1",
  "biological_target": "Nogo binding sites (axonal Nogo receptors) on chick dorsal root ganglion neurons (chick)",
  "assay": "competition with 10 nM AP-Nogo binding to chick E12 DRG neurons (FIG. 3b)",
  "note": "Where no end group is shown, it is not given here.",
  "data": [
    {"binder": "RIYKGVIQAIQKSDEGHPFRAYLESEVAISEELVQKYSNS (not fully specified)", "note": "[Pep2-41 (2-41 fragment of Nogo)]", "values": [
      {"measurement": "Ki", "value": 150, "unit": "nM"}
    ]}
  ]
}
